Test results: patent publication US9539315B2, “Methods, agents and peptides for inhibiting matrix metalloproteinase-2 signaling” (New York University, priority 2011, dated 2017)
“Also recorded” adds a separate entry of the source.

How the values were obtained:
NF-κB pathway = assay: p50 nuclear translocation / NF-κB activation in DCs (ELISA of cytosolic and nuclear fractions); format: cell-based, human
Procedure: A) DCs were exposed to MMP-2 […] or zymosan […], a known activator of NF-κB that acts via TLR2, for the indicated time. Cytosolic and nuclear fractions were isolated and p50 contents were measured by ELISA. […] C) OX40L over-expression on DCs induced by MMP-2 is inhibited by an inhibitor of NEMO, the NEMO binding domain (NBD) peptide, but not by the corresponding negative control, a NBD mutant.
PBMCs were purified from healthy-(HD) or cord blood- (CB) donors and plated at 40×10^6 cells/10 mL/dish in complete IMDM with 5% PHS. Cells were allowed to adhere for 2 h at 37° C. Non-adherent cells were removed. The monocyte-enriched fraction was supplemented with 100 UI/mL rhGMCSF and 300 UI/mL rhIL-4 (R&D Systems) on days 0, 2 and 4. Immature DCs were harvested on day 5 and matured using poly(I:C) at 5 μg/mL/10^6 DCs (Amersham). Secretion of IL-12p70, TNFα, IL-1β, IL-6, IL-8 and IL-10 was assessed on both immature and mature DCs using the Human Inflammatory Cytokine Cytometric Bead Array (BD Pharmingen).
Activation of T cell clones (10,000 cells/100 μL/well), polyclonal T cell populations (100,000 cells/100 μL/well), and DCs (50,000 cells/100 μL/well) can be determined by ELISA. IFNγ (BioSource), TNFα (BioSource), IL-4 (BioSource), IFNβ (VeriKine; PBL interferon source) and MCP-3 (DuoSet; R&D Systems) contents in supernatants were measured according to the manufacturer's instructions. p50 was measured in cytosolic and nuclear fractions (fractions separated using the nuclear separation kit from Active motif) by ELISA (Active motif).

human TLR-2 = biological target: T1, human TLR-2 (Homo sapiens, UniProt O60603); assay: HEK-Blue-hTLR2 NF-κB SEAP reporter assay; format: cell-based; conditions: MMP-2 5 mg/ml; twenty hours; with/without TLR2 blocking antibody
T1 construct: host or cells: HEK293 (HEK-Blue-hTLR2 cells)
Procedure: A) DCs were exposed to various TLR agonists for 2 days before cells were stained for OX40L. […] B) TLR2-transfected and engineered HEK cells were incubated with MMP-2 (5 mg/ml) or various controls. All conditions were also tested in the presence of a blocking antibody for TLR2. TNFα was used to activate NF-κB in a TLR-independent manner. Twenty hours later, NF-κB activation was measured.
TLR2-transfected and engineered HEK cells were incubated with MMP-2 (5 mg/ml), TLR2 agonists, recombinant PEX and 3 pools of overlapping 20-mers covering MMP-2. OLP1: mix of 22 overlapping peptides covering MMP-2 from amino-acid 1 to 220; OLP2: mix of 22 overlapping peptides covering MMP-2 from amino-acid 210 to 440; OLP3: mix of 22 overlapping peptides covering MMP-2 from amino-acid 450 to 660. Twenty hours later, NF-κB activation was measured. Neither PEX nor the peptides triggered NF-κB signaling.
TLR-2-transfected (stably) HEK-Blue™ Cells represent a very efficient high throughput reagent for screening due to an easy read-out. […] Levels of SEAP can be readily determined with QUANTI-Blue™, a detection medium that turns purple/blue in the presence of alkaline phosphatase. […] Inhibition of NF-κB activation by any agents/molecules can be assessed and confirmed in DCs (which endogenously express TLR2 or are engineered to express exogenous TLR2) in order to corroborate the initial screening results in a native or more natural context. […] TLR-2-expressing cells, such as those described herein, can be incubated with agents/molecules and molecular interactions assessed using methods, such as, e.g., co-immunoprecipitation of MMP-2 and TLR-2 from the cell lysates. […] Additional methods can be used to evaluate if MMP-2 and TLR-2 interact directly, including other affinity-based methods (e.g., affinity chromatography or panning), competitive inhibition assays, and various visualization techniques, such as fluorescence resonance energy transfer (FRET) and others which are known in the art. […]

T1 sequence (O60603 21-784): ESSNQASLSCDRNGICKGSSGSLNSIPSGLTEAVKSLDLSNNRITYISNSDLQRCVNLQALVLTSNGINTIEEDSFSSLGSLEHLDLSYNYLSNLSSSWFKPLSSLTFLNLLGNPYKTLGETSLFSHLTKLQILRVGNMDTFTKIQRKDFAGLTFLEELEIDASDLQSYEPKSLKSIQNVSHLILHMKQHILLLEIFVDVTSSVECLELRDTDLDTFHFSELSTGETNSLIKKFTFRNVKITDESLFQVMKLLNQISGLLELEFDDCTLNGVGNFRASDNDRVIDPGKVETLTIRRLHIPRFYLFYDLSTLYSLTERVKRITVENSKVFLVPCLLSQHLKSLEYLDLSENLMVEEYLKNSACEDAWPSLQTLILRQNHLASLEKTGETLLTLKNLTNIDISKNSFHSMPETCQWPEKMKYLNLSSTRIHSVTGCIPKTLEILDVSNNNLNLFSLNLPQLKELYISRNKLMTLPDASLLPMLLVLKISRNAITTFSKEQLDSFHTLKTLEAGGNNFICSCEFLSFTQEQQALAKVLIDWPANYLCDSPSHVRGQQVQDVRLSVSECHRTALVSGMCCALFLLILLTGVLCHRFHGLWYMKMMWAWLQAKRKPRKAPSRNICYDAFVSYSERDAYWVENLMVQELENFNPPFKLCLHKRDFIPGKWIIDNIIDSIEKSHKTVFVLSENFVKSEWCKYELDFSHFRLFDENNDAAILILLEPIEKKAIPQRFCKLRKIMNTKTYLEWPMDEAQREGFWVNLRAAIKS

B1: matrix metalloproteinase-2 (protein)
chain: YNFFPRKPKWDKNQITYRIIGYTPDLDPETVDDAFARAFQVWSDVTPLRFSRIHDGEADIMINFGRWEHGDGYPFDGKDGLLAHAFAPGTGVGGDSHFDDDELWTLGEGQVVRVKYGNADGEYCKFPFLFNGKEYNSCTDTGRSDGFLWCSTTYNFEKDGKYGFCPHEALFTMGGNAEGQPCKFPFRFQGTSYDSCTTEGRTDGYRWCGTTEDYDRDKKYGFCPETAMSTVGGNSEGAPCVFPFTFLGNKYESCTSAGRSDGKMWCATTANYDDDRKWGFCPDQGYSLFLVAAHEFGHAMGLEHSQDPGALMAPIYTYTKNFRLSQDDIKGIQELYGASPDIDLGTGPTPTLGPVTPEICKQDIVFDGIAQIRGEIFFFKDRFIWRTVTPRDKPMGPLLVATFWPELPEKIDAVYEAPQEEKAVFFAGNEYWIYSASTLERGYPKPLTSLGLPPDVQRVDAAFNWSKNKKTYIFAGDKFWRYNEVKKKMDPGFPKLIADAWNAIPDNLDAVVDLQGGGHSYFFKGAYYLKLENQSLKSVKFGSIKSDWLGC
NF-κB pathway; DCs exposed to MMP-2 (5 μm/ml) or zymosan (10 μm/ml), p50 by ELISA
  p50 translocation in the nucleus: triggers p50 translocation in the nucleus; also recorded: induce p50 translocation in the nucleus after 30 min
NF-κB pathway; active vs heat-inactivated MMP-2
  NF-κB activation in DCs: NF-κB activation (FIGS. 2A, 2B and 3) at similar levels
Human TLR-2
  NF-κB activation in TLR2-transfected HEK cells: activates NF-κB through TLR-2 triggering; also recorded: activate NF-κB in a TLR2-dependent manner
